Test results from the nanobody polyreactivity screen of Harvey et al. (2022).

Assay: yeast display, Sf9 membrane polyspecificity reagent, FACS + sequencing; frameworks hold sequencing errors
Outline: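 Sorting gates, low and high (top ~1%), were placed on anti-HA fluorescence to track expression and on streptavidin fluorescence to track reagent binding. A clone's polyreactivity label is taken from the gate it came out of. The reagent was 10% biotinylated, detergent-solubilized Sf9 membrane, applied for 1 hour at 4 °C to galactose-induced yeast display cells.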

Sequence	polyreactivity (PSR sort gate)
QVQLVESGGGLVQAGGSLRLSCAASGFIFRYYAMGLYRHAPGKERELVASISSGGSTDYADSVKGRFTISRDNAKNTVYLQMNSLKPEDTAVYYCAAGYRSLSLHVGSYRYYYRGQGTQVTVSS	high polyreactivity
QVQLVESGGGLVQAGGILRLSCAASGRIFSYYAKGWYRQAPGKERELVAAITRGGSTNYADSVKGRFTISRDNAKNSVYLQMNSLKPEDTAVYYFAVRGGYTGPTYNYWGQGTQVTVSS	high polyreactivity
QVQLVESGGGLVQAGGSLRLSCAASGRTFGIYAMGWYRQAPGKERELVAAITWSGDSTYYADSVKGRFTISRDNAKNTVYLQMNSLKPEDTAVYYCAADYVGVTSVRYDYWGQGTQVTVSS	low polyreactivity
QVQLVESGGGLVQAGGSLRLSCDASGFIFWWYAMGWYRQAPGKEREFVAYISWSGARTYYADSVKGRFTISRDNAKNTVYLLMNSLKQEDTAVYYCNADRIGRYYQSYGGGHMDYWGQGTQVNVSS	high polyreactivity
QVQLVESGGGLVQAGGSLRLSCAASGSTFKKNAMGWYRQAPGKERELVAAISGIGTRTSYADSVKGRFTISRDNAKNTVYLQMNSLKPEDTAVYYCAARYYGFPSTLKYDYWGQGTQVTVSS	high polyreactivity
QVQLVESGGGLVQAGGSLRLSCAAWSIFYLNAMGWYRQAPGKERELVAAISSAGSTYYADSVKGRFTISRDNAKNTVYLQMNSLKPEDTAVYYCAAYWYDSPGVTEIWYDYWGQGTQVTVSS	low polyreactivity
QVQLVESGGGLVQAGGSLRLSCAASGSIFSWYAMGSYTQAPGKESELVAAITRGGSTYADSVKGRFTISRDNAKNTVYLQMNSLKPEDTAVYYCNAVYGVYDFNYWGQGTQVTVSS	low polyreactivity
QVQLVESGGGLVQAGGSLRLSCAASGFTFVYYAMGWYRQAPGTERELVAAISQSGSSTYYADSVKGRFTISRDNAKNTVYLQMNTLKPEDTAVYYCAAQEFQKRLGGSWWRYDYWGQGTQVTVSS	high polyreactivity
QVQLVESGGGLVQAGGSLRLSCAASGSIFAYYTMGWYRQAPGKERELVATISSGDITNYADSVKGRFTISRDNAKNTVYLQMNSLKPEDTAVYYCAAAELTSYYRTFIHQDYDYWGQGTQVTVSS	low polyreactivity
QDQLVDSGGGLVQAGGSLRLSCAASGSTFGPYPMGWYRQAPGKERELVATISSGGSTYYADSVKGRFTISRDNAKNTVYLQMNSLKPEDTSVYDCAARYWSIYDYWGQGTQVTVSS	low polyreactivity
QVQLEESGGGLVQAGGSLRLSSAASGYIFDWYAMGWYRQAPGKEREFVAAISGSDGSTYYADSVKGRFTISRDNAKNTVYLQMNSLKPVDTPVYYCAADPYYGDMEYWGQGTQVTVSS	low polyreactivity
QVQLVESGGGLVQAGGSLRLSCAASGRTFNRYAMGWYRQAPGKERELVAVITSDGRTNYADSVKGRFTISRDNAKNTVYLQMNSLKPEDSAVYYCNKRSALSFVYDFDYWGQGTQVTVSS	low polyreactivity
QVQLVESGGGLVQAGGSLRLSCAASGLTFLNNAMGWYRQAHGKERELVAAISDGGSTNYADSVKGRFTISRDNAKNTVYLQMNSLKPEDTAVYYCGADYTSASYGSWGQGTQVTVSS	low polyreactivity
QVQLVESGGCIVQAGGSLRLSCAASGNIFAYNGKVWYRQAPGKERELVAAIRGSGTRTYYAESVKGRFTISRDNAKNTVYLHMNSLKPEDTAVYYCSARYFGTARTNYGYWGQGTQVTVSS	high polyreactivity
HVQLVESGGGLVQAGGSLRLSCAASGLTFEDNDMGWYRQAPGKERELVAAISSAGSTSYADSVKGRFTISRVNAKNTVYLQMNSLKPEDTAVYYCAKDNSPSYTPAQLDGGDDYWGHGTQVTVSS	low polyreactivity
QVQLVESRGGLVQAGGSLRLSCAASGFIFSYYAMGWYRQAPGKERELVAAISGLGGSTYYADSVKGRFTISRDNAKNTVYLQMNSLKPEDTAVYYCAATTLRYYRHGDYWGQGTQVTVSS	low polyreactivity
QVQLVESGGGLVQAGGSLRLSCAASGLIFRYYSMAWYRQAPGKERELVAAISKSGDRTYYADSVKGRFTISRDNAKNTVYLEMNSLKPEATGVYYCAADSYPSPNFEDNYWGQGTQVTVSS	low polyreactivity
QVQLVESGGGLVQAGGSLRLSCAASGRIFGKYVMVWYRQEPGKERELVAGISWSAGSTYYADSVKGRFTISRDTAKNTVYLQMNSLKPEDSAVYSCAAGLEGGYDYWGQGTEVTVSS	low polyreactivity
QVQLVESGGGLVQAGGSLRLSCAASVSIFEWYAMGRYRQAHGKERELVAAINSGGSTYYADSVKGRFTISRDNAKNTVYLQMNSLKPEDTAVYYCAAGTQAHAYVVRPIEMDYWGQGTQVTVSS	low polyreactivity
QVQLVESGGGLVQAGGSLRLSCAASGSIFNYYAMGWYRQAPGKERELVAGITTSGGSTYYADSVKGRFTISRDNAKNTVYLQMNSLKPEDTAVYYCAAYDYISSTYFLDDYWGQGTQVTVSS	low polyreactivity
QVQLVESGGGLVQAGGSLRLSCAASGSIFWGNAMGWYRQAPGKERELVATISWSAGSTYYADSVKGRFTISRDNAMNTVYLQMNSLKPDDTAVYYCATDVRHSTLYYYWGQGTQVTVSS	low polyreactivity
QVQLVESGGGLVQAGGSLRLSCAASGRIFGVYAMGWYRQAPGKERELVAAIRGDGSTNYADSVKGRFTISRDNAKNTVYLQMNSLKPEDTAVYYCATDLGIYSGSPWGYYYWGQGTQVTVSS	low polyreactivity

Sequence	polyreactivity (PSR sort gate)
QVQLVESGGGLVQAGGRLRLSSAASGRTFFGSYAMGWYRQAPGKERELVADIRSGGNTNYADSVKGRFTISRDNAKNTVYLQMNRLKPDDTAVYYCASDGYSIVVYHPDYRYVYWGQGTQLTVSS	low polyreactivity
QVQLVESGGGLVQAGGSLRISCAASGITFYGYAMGWYRQAPGKERELVATISKSGGITSYADSVKGRFSISRDNAKNTVYLQMNSLKPEETAVYYCNRGKSYGGYDYWGQGTQVTVSS	low polyreactivity
QVQLVESGRGLVQAGVSLRLSCASSGSTFTLNVMGWYRKAPVKERELVAGFSKRGGNTYYADSVKGRFTISRDYAKNTVYLQMNRLKPEDTAVYFCAKRQGVGYGYYYLGQGTQVTVSS	high polyreactivity
QVQLVESGGGLVQAGGSLRLSCAASGRIFSSYALGWYRQARGKERELVAAISASGGRTYYADSVKGRCTISRDNAKNTVYLQMNSLKPEDTAVYYCNRGYISGSVVERYYWGQGTQVTVSS	high polyreactivity
QVQLVESGGGLVQAGGSLRLSCAASGNTFLYYGMGWYRQAPGKERELVAAITQSGGTTYYADSVKGRCTISRDNAKNPVYLQMNSLKPEDTAVYYCAATRYYYYWYVYDDRGDYWGQGTQVTVSS	low polyreactivity
QVQLVESGGGLVQAGGSLRLTCAASGSIFYYYAMGWYRQAPGKERELVASITYRGGSTYYADSVKGRFTISRDYAKNTVYLLMNSLKPEDTAFYYCAVVGYRYRHYYWGQGTQVTVSS	high polyreactivity
QVQLVESGGGIVQAGGSLRLSCAASGFTFQFYAMGWYRQAPGKEREFVAAISGSGGSTYYADSVKGRFTISRDNAKNTVYLQMNSLKPEDTAVYYCAAEVPGKPYRRSRYSFRHDYWGQGTQVTVSS	low polyreactivity
QVQLVESGGGLVQAGGSLRLSCAACGIIFVYYAMGWYRQAPGKERELVAAISSSGARTYYADSVKGRFTISRDNAKNTVYLQMNSLKPEDTAVYYCAARETRTKPIFYGYNYWGQGTQVTVSS	high polyreactivity
QVQLLESGGGLVQAGGSLRLSCAASGRILTGYAMGWYRQAPGKERELVASINWRGGSTYYADSVKRRFTISRDNAKNTVYLQLNSLKPEDTAVYYCAARVRVTGTYYTKYDYWGQGTQVTVSS	high polyreactivity
QVQLVDSGGGLVQAVGSLRLSCAASGITFDEYAMGWYRQAPGKERELVAAISVSGGDTYYADSVKGRFTISRDNAKNNVYLQMNSLKPEDTAVYYCNARWGTPYYIQDFDYWGLGTQVTVSS	low polyreactivity
QVQRLESRGGLVQAGGSLRLSCAASGSTFDYNAMGWYRQAPGKERELVAAITSSGGSTYYADSVKGRFTISRDNAKNNVYLQMHSLKPEDTAVYYCNADGYVPDYEYWGQGTQVTVSS	high polyreactivity
QVQLEESGGGLVQAGGSLRLICAASGSIFYYKYAMGGYRQAPGKERELVAAITSTGGTTYYADSVKGRFTISRDNAKNTVYLQMNSLKPEDTAVYYCAALAPYIGGVDYDYWGQGTQVTVSS	low polyreactivity
QVQLVESGGGLVQAGGSLRLSCAASGSIFYENDMGWYRQAPGKERELVAAISSGGTTNYADSVKGRFTISRDNAKNTVYLQMNSLKPEDTAVYYCAAEYPSVYYERFDYWGQGTQVTVSS	low polyreactivity
QVQLVESGGGLVQAGGSLRLSCAASGRIFHQNTMGWYRQAPGKERELVAAISATGGGTNYADSVKGRFTISRDNAKNTVYLQMNSLKPEDTAVYYCAVRPKTSWYSWYYWGQGTQVTVSS	low polyreactivity
QVQLVESGGGLVQARGSLRLSCAASGRIFNYYAMGWYRQAPGKERELVAAISGSGGRTYYADSVKGRFTISRDNAKNTVYLQMNSLKPEDTAVYYCAADGVDGYDYWGLGTQVTVSS	high polyreactivity
QVQLVESGGGLVQAGGSLRLSCAASGSIFGYYAMGWYRQAPGKERELVAAISGNGGNTYYADSVKGRFTISRDNAKNTVYLQMNSLKPEDTAVYYCNRAPGYRGGRYDYWGQGTQVTVSS	high polyreactivity
QVQLVESGGGLVQEGGSLRLSCAASGSIFFYYAMGWYRPAPGKERELVAAIRSGTSTNYADSVKGRFTISLDNAKNTVYLQMNSLKPEDTAVYYCNKDTDWSWSAITSPIFDYWGQGTQVTVSS	low polyreactivity
QVQLVETGGGLVHAGGSLRLSCAASGSTISLYARGWYRQAPVKERELVASITWGGGSTYADSVKGRFTISRDNAKNTVYLQLNRLKPEDTAVYYCARKYRYRVLYDFAYDHWGQGTQVTVSS	low polyreactivity
QVQLVESGGGLVQAGGSLRLSCAASGRIFWANAMGWYRQAPGKERELVAAISKSGDSTYYADSVKGRFTISRDTAKNTVYLEMSWLKPEDTAVYSCAADEYASRFSFKYDYWGQGTQVTVSS	high polyreactivity
QVCLQESGGGLVQACGSLRLSCAASGTISRDIFMGWYRQAPGKEREFVATIAQGGITNYADSVKGRFTISRDNAKNTVYLQMNSVKPGDTAVYYCAARDGNCYWFYYWGQGTQVTVSS	high polyreactivity
QVQLVESGGGLFQAGGSLRLSCAASGSTFSPNGMGWYRQSPGKERELVAVISTTGGGTYYADSVKVRFTISRDNAKNTVYLQLNSLKPEDTAVYYCAADVWTYSWSWRKYVEFNYWGQGTQVTVSS	high polyreactivity
